The text below walks through data of publication PMC11180174 (Nature Communications, 2024).

Bounds are passed on as bounds.

Broadly, the Kd is the equilibrium constant for the complex coming apart. A word on the koff: it is the first-order rate constant of dissociation. A lower koff goes with slow dissociation. As usually defined, the kon is the second-order rate constant of association.

For test [1], the target named is T1, SARS-CoV-2 (Wuhan-Hu-1 strain) wild-type RBD, His-tagged (SARS-CoV-2 Wuhan-Hu-1 (MN908947.3), UniProt P0DTC2).
T1 construct: source: HEK293F, transiently transfected, purified (Ni Sepharose); not shown: 8xHis, C-terminal, kept
The experiment in a line: BLI. As to conditions: both partners purified.

Test [2] concerns the target T2, SARS-CoV-2 (Wuhan-Hu-1 strain) wild-type spike RBD-His (SARS-CoV-2 Wuhan-Hu-1 (MN908947.3), UniProt P0DTC2).
T2 construct: source: HEK293F, transfected, purified (Ni Sepharose); not shown: His8, C-terminal, kept
Put plainly: BLI. Particulars: both partners purified.

B1: neutralizing antibody 7F3 (antibody, V domains shown)
VH: EVQLVESGGGLVKPGRSLRLSCTASGFTFGDYAMSWFRQAPGKGLEWVGFIRSKAYGGTTEYAASVKGRFTISRDDSKSIAYLQMNSLKTEDTAVYYCTRDRYARYDILTGLSPAGADYFYYAMDVWGQGTTVTVSS
VL: EIVLTQSPATLSLSPGERATLSCRASQSVSSYLAWYQQKPGQAPRLLIYDASNRATGIPARFSGSGSGTDFTLTISSLEPEDFAVYYCQQRSNWPQYTFGQGTKLEIK
In test [1], B1 displayed a Kd of less than 1 pM, a koff of less than 1e-07 s⁻¹ and a kon of 192000 M⁻¹ s⁻¹.

B2: 7F3 neutralizing antibody (IgG) (antibody, V domains shown)
VH: B1 VH
VL: B1 VL
In test [2], B2 registered a Kd of less than 1 pM, a koff of less than 1e-07 s⁻¹ and a kon of 192000 M⁻¹ s⁻¹.

B3: LY-CoV1404 (also known as bebtelovimab) (antibody, V domains shown)
VH: QITLKESGPTLVKPTQTLTLTCTFSGFSLSISGVGVGWLRQPPGKALEWLALIYWDDDKRYSPSLKSRLTISKDTSKNQVVLKMTNIDPVDTATYYCAHHSISTIFDHWGQGTLVTVSS
VL: QSALTQPASVSGSPGQSITISCTATSSDVGDYNYVSWYQQHPGKAPKLMIFEVSDRPSGISNRFSGSKSGNTASLTISGLQAEDEADYYCSSYTTSSAVFGGGTKLTVL
notes: control antibody
Take B3: in test [1], the Kd was less than 1 pM, the koff was less than 1e-07 s⁻¹ and the kon is 79100 M⁻¹ s⁻¹.

B4: LY-CoV1404 (bebtelovimab) (antibody, V domains shown)
VH: B3 VH
VL: B3 VL
In test [2], B4 registered a Kd of less than 1 pM, a koff of less than 1e-07 s⁻¹ and a kon of 79100 M⁻¹ s⁻¹.
